The values that follow come from patent publication US20220042018, “APTAMERS AND THE USE THEREOF IN THE TREATMENT OF CANCER” (FUNDACIÓn PARA LA INVESTIGACIÓn BIOMÉDICA …, published 2022).

Data set [1] addresses T1, MNK1a (MKNK1 isoform a) (UniProt Q9BUB5-2 Q9BUB5-2:1-424). Nature of the data set: ELONA; BSA-free aptamer buffer, 37 C; also detected in apta-western. The settings on record: tags: GST fusion; label: biotin; G4 (parallel, five-tiered from 3- and 2-tier quadruplexes). As to the method: (§1) To determine the binding of the aptamers to MNK1a or MNK1b, 200 ng of protein/well diluted in a coating solution (KPL, USA) in a final volume of 100 μL/well were added to a Maxisorp Nunc 96-well ELISA plate (ThermoFisher Scientific, USA). The plate was incubated overnight at 4° C. under stirring. Aptamers were then added at the corresponding concentration according to the assay, in a final volume of 100 μL/well of BSA-free aptamer buffer for 1 hour at 37° C. under stirring. All the aptamers used were labeled with biotin and had been previously denatured at 90° C. for 10 minutes and then kept at 4° C. for 10 minutes in the BSA-free aptamer buffer. To detect the binding of the aptamer to the protein, 100 μL/well of streptavidin-peroxidase (GE Healthcare, United Kingdom) diluted 1/1000 in the aptamer buffer at 37° C. for 1 hour under stirring were added. To develop the plate, 100 μL/well of ABTS solution (Roche, Switzerland) were added, and it was incubated in darkness at room temperature, with measurements being taken every 10 minutes at a wavelength of 405 nm in an Infinite F200 spectrophotometer (TECAN, Switzerland).
(§2) To analyze the affinity of the new aptamer apMNKQ2, ELONA assays were carried out with the four MNK1 constructs.

Data set [2] deals with T2, MNK1b (MKNK1 isoform b) (UniProt Q9BUB5-3 Q9BUB5-3:1-347). Nature of the data set: ELONA; BSA-free aptamer buffer, 37 C; four-fold higher affinity than MNK1a; preferentially recognised in native apta-western. The settings on record: tags: GST fusion; label: biotin; G4 (parallel, five-tiered from 3- and 2-tier quadruplexes). As to the method:
as §1, §2

Data set [3] has as its target T1, MNK1a (MKNK1 isoform a). Put plainly: recognised both isoforms in a similar manner; data not shown. To be noted: tags: GST fusion; label: biotin; G4 predicted.
The target in data set [4] is T2, MNK1b (MKNK1 isoform b). The description is as above. The settings on record: tags: GST fusion; label: biotin; G4 predicted.

T1 sequence (Q9BUB5 other isoform, or with tags, fused parts or gaps): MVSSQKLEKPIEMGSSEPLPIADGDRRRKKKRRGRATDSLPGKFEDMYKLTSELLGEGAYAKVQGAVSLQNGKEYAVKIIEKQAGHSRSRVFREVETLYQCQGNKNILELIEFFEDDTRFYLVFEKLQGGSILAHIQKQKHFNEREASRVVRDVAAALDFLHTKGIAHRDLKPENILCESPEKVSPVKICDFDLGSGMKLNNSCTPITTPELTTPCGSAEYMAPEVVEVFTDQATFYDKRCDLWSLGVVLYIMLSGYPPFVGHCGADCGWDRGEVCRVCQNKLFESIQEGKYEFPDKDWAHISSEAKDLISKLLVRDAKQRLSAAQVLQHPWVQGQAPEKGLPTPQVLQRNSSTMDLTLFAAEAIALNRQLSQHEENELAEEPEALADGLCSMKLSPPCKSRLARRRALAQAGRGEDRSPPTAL
T2 sequence (Q9BUB5 other isoform, or with tags, fused parts or gaps): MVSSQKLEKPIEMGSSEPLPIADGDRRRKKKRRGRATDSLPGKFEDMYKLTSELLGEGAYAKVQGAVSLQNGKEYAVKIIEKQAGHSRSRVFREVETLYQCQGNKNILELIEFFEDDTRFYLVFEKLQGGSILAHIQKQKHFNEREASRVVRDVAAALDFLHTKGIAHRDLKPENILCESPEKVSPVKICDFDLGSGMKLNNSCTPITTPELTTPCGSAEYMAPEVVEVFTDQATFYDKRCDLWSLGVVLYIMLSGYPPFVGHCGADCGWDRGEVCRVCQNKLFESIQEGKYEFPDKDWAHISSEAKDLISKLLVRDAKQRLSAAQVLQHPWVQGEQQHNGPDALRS

B1: apMNKQ2 (structured_DNA)
DNA: TGGGGTGGGCGGGCGGGGGTGGGGGTGGT
As a reminder, the Kd is the concentration at which binding is half-saturated. High values mean lower affinity, low ones higher affinity. As to B1, the values for the Kd in data set [1] and in data set [2] were 66.1 nM and 15.5 nM, respectively.

B2: apMNK2FT (structured_DNA)
DNA: TTTTTGGGGTGGGCGGGCGGGGGTGGGGGTGGTATGGCGCGTTGGCCC
For the molecule B2, the binding result in data set [3] and in data set [4] was “binds” each time.
